In patent publication US20230212244A1 (IMMATICS BIOTECHNOLOGIES, published 2023) one finds peptide exchange yield data, which are given here for 61 molecules.

For the assay, the target named is T1, HLA-A*02:01 (human).
T1 construct: MHC class I monomer made peptide-receptive by UV cleavage of a UV-sensitive ligand; also called peptide-receptive MHC molecules
Put plainly: UV-ligand exchange ELISA (anti-β2m), peptide exchange yield grade. An excerpt:
Candidate peptides for T cell based therapies according to the present invention were further tested for their MHC binding capacity (affinity). The individual peptide-MHC complexes were produced by UV-ligand exchange, where a UV-sensitive peptide is cleaved upon UV-irradiation, and exchanged with the peptide of interest as analyzed. Only peptide candidates that can effectively bind and stabilize the peptide-receptive MHC molecules prevent dissociation of the MHC complexes. To determine the yield of the exchange reaction, an ELISA was performed based on the detection of the light chain (β2m) of stabilized MHC complexes. The assay was performed as generally described in Rodenko et al. (Rodenko et al., 2006).
96 well MAXISorp plates (NUNC) were coated over night with 2ug/ml streptavidin in PBS at room temperature, washed 4× and blocked for1h at 37° C. in 2% BSA containing blocking buffer. Refolded HLA-A*02:01/MLA-001 monomers served as standards, covering the range of 15-500 ng/ml. Peptide-MHC monomers of the UV-exchange reaction were diluted 100 fold in blocking buffer. Samples were incubated for 1h at 37° C., washed four times, incubated with 2 ug/ml HRP conjugated anti-β2m for 1h at 37° C., washed again and detected with TMB solution that is stopped with […]. Absorption was measured at 450 nm. Candidate peptides that show a high exchange yield (preferably higher than 50%, most preferred higher than 75 %) are generally preferred for a generation and production of antibodies or fragments thereof, and/or T cell receptors or fragments thereof, as they show sufficient avidity to the MHC molecules and prevent dissociation of the MHC complexes.

Square brackets hold non-standard residues; d marks the D form. Ends that are not written are not given here. pS = N[C@@H](COP(=O)(O)O)C(=O)O

B1: peptide QLFSEIHNL (SEQ ID NO: 191) (peptide)
peptide: QLFSEIHNL
Take B1: the peptide exchange yield is not below 75%.

B2: peptide ALSNVIHKV (SEQ ID NO: 40) (peptide)
peptide: ALSNVIHKV
B2 displayed a peptide exchange yield of 20 to 50%.

B3: peptide VLYTGWRV (SEQ ID NO: 185) (peptide)
peptide: VLYTGVVRV
The molecule B3 showed a peptide exchange yield of 50 to 75%.

B4: peptide TLQEVVTGV (SEQ ID NO: 183) (peptide)
peptide: TLQEVVTGV
notes: also called TLQEWTGV
Molecule B4 registered a peptide exchange yield of 50 to 75%.

B5: peptide KMLDEILLQL (SEQ ID NO: 164) (peptide)
peptide: KMLDEILLQL
B5 showed a peptide exchange yield not below 75%.

B6: peptide VLIDHRWVL (SEQ ID NO: 21) (peptide)
peptide: VLIDHRWVL
Turning to B6, the peptide exchange yield was 50 to 75%.

B7: peptide AISEVIGKITA (SEQ ID NO: 189) (peptide)
peptide: AISEVIGKITA
With B7, the peptide exchange yield was 50 to 75%.

B8: peptide RLLHEVQEL (SEQ ID NO: 163) (peptide)
peptide: RLLHEVQEL
As for B8, the peptide exchange yield was 50 to 75%.

B9: peptide RLAELTVDEFL (SEQ ID NO: 4) (peptide)
peptide: RLAELTVDEFL
For the molecule B9, the peptide exchange yield was in the range of 50 to 75%.

B10: peptide LLADEDSSYL (SEQ ID NO: 27) (peptide)
peptide: LLADEDSSYL
B10: the peptide exchange yield lay within 20 to 50%.

B11: peptide SLAPTPVSA (SEQ ID NO: 38) (peptide)
peptide: SLAPTPVSA
In the case of B11, the peptide exchange yield lay in the range of 20 to 50%.

B12: peptide ALTEIQEFI (SEQ ID NO: 28) (peptide)
peptide: ALTEIQEFI
Turning to B12, the peptide exchange yield is not below 75%.

B13: peptide GLLESPSIFNFTA (SEQ ID NO: 36) (peptide)
peptide: GLLESPSIFNFTA
B13: the peptide exchange yield fell in the range of 50 to 75%.

B14: peptide KLLDLTVRI (SEQ ID NO: 35) (peptide)
peptide: KLLDLTVRI
Molecule B14 returned a peptide exchange yield of 50 to 75%.

B15: peptide KLLEFDQLQL (SEQ ID NO: 160) (peptide)
peptide: KLLEFDQLQL
In turn, B15 had a peptide exchange yield of 50 to 75%.

B16: peptide QMLDVAIRV (SEQ ID NO: 29) (peptide)
peptide: QMLDVAIRV
As for B16, the peptide exchange yield lay within 50 to 75%.

B17: peptide RLIPDTLYSV (SEQ ID NO: 3) (peptide)
peptide: RLIPDTLYSV
In turn, B17 showed a peptide exchange yield not below 75%.

B18: peptide GLFAGLGGAGA (SEQ ID NO: 37) (peptide)
peptide: GLFAGLGGAGA
Regarding B18, the peptide exchange yield was in the range of 50 to 75%.

B19: peptide VLDGVLMEL (SEQ ID NO: 24) (peptide)
peptide: VLDGVLMEL
B19 had a peptide exchange yield of 50 to 75%.

B20: peptide RLQETEGMVAV (SEQ ID NO: 171) (peptide)
peptide: RLQETEGMVAV
With B20, the peptide exchange yield was 20 to 50%.

B21: peptide SLADRLIGV (SEQ ID NO: 25) (peptide)
peptide: SLADRLIGV
In turn, B21 gave a peptide exchange yield not below 75%.

B22: peptide KLGDLMVLL (SEQ ID NO: 173) (peptide)
peptide: KLGDLMVLL
Molecule B22 had a peptide exchange yield of 50 to 75%.

B23: peptide GLSSAYGGL (SEQ ID NO: 30) (peptide)
peptide: GLSSAYGGL
Turning to B23, the peptide exchange yield fell in the range of 10 to 20%.

B24: peptide ILLDDNMQIRL (SEQ ID NO: 174) (peptide)
peptide: ILLDDNMQIRL
Molecule B24 returned a peptide exchange yield not below 75%.

B25: peptide KLMDYIDEL (SEQ ID NO: 162) (peptide)
peptide: KLMDYIDEL
For the molecule B25, the peptide exchange yield fell in the range of 50 to 75%.

B26: peptide SLNKWIFTV (SEQ ID NO: 182) (peptide)
peptide: SLNKWIFTV
Molecule B26 had a peptide exchange yield not below 75%.

B27: peptide GLIDEVMVL (SEQ ID NO: 22) (peptide)
peptide: GLIDEVMVL
notes: also called CYP2W1-001
As to B27, the peptide exchange yield fell in the range of 50 to 75%.

B28: peptide GLLEARGILGL (SEQ ID NO: 166) (peptide)
peptide: GLLEARGILGL
The molecule B28 displayed a peptide exchange yield of 50 to 75%.

B29: peptide KMSEKILLL (SEQ ID NO: 186) (peptide)
peptide: KMSEKILLL
Molecule B29 yielded a peptide exchange yield of 50 to 75%.

B30: peptide TLLGGKEAQALGV (SEQ ID NO: 175) (peptide)
peptide: TLLGGKEAQALGV
Consider B30, for which the peptide exchange yield was in the range of 50 to 75%.

B31: peptide SILDDSFKL (SEQ ID NO: 42) (peptide)
peptide: SILDDSFKL
B31 returned a peptide exchange yield not below 75%.

B32: peptide ALWEKNTHL (SEQ ID NO: 33) (peptide)
peptide: ALWEKNTHL
B32 displayed a peptide exchange yield of 50 to 75%.

B33: peptide GLASKENFSNVSL (SEQ ID NO: 26) (peptide)
peptide: GLASKENFSNVSL
Consider B33, for which the peptide exchange yield fell in the range of 20 to 50%.

B34: peptide SVIDHIHLISV (SEQ ID NO: 167) (peptide)
peptide: SVIDHIHLISV
B34 showed a peptide exchange yield of 50 to 75%.

B35: peptide KLNTETFGV (SEQ ID NO: 32) (peptide)
peptide: KLNTETFGV
B35 returned a peptide exchange yield of 20 to 50%.

B36: peptide YLFREPATI (SEQ ID NO: 178) (peptide)
peptide: YLFREPATI
As for B36, the peptide exchange yield lay within 20 to 50%.

B37: peptide NLFDLGGQYLRV (SEQ ID NO: 181) (peptide)
peptide: NLFDLGGQYLRV
B37 returned a peptide exchange yield of 50 to 75%.

B38: peptide RLLDFPEAMVL (SEQ ID NO: 165) (peptide)
peptide: RLLDFPEAMVL
In the case of B38, the peptide exchange yield is not below 75%.

B39: peptide VLVDQSWVL (SEQ ID NO: 16) (peptide)
peptide: VLVDQSWVL
In turn, B39 registered a peptide exchange yield of 50 to 75%.

B40: peptide SLLDENNVSSYL (SEQ ID NO: 184) (peptide)
peptide: SLLDENNVSSYL
The molecule B40 had a peptide exchange yield of 50 to 75%.

B41: peptide ILDDSFKLL (SEQ ID NO: 41) (peptide)
peptide: ILDDSFKLL
Turning to B41, the peptide exchange yield fell in the range of 20 to 50%.

B42: peptide GLHNVVYGI (SEQ ID NO: 187) (peptide)
peptide: GLHNVVYGI
notes: also called GLHNWYGI
Regarding B42, the peptide exchange yield was 50 to 75%.

B43: peptide FLDANGHFV (SEQ ID NO: 23) (peptide)
peptide: FLDANGHFV
Take B43: the peptide exchange yield is 50 to 75%.

B44: peptide ILLEKSVSV (SEQ ID NO: 34) (peptide)
peptide: ILLEKSVSV
With B44, the peptide exchange yield is 50 to 75%.

B45: peptide GLIRFPLMTI (SEQ ID NO: 168) (peptide)
peptide: GLIRFPLMTI
B45 had a peptide exchange yield of 50 to 75%.

B46: peptide YLKDGDVML (SEQ ID NO: 20) (peptide)
peptide: YLKDGDVML
Molecule B46 displayed a peptide exchange yield of 50 to 75%.

B47: peptide ALLPRYFFL (SEQ ID NO: 2) (peptide)
peptide: ALLPRYFFL
In turn, B47 returned a peptide exchange yield of 20 to 50%.

B48: peptide LLYGKYVSV (SEQ ID NO: 31) (peptide)
peptide: LLYGKYVSV
On to B48, for which the peptide exchange yield was 50 to 75%.

B49: peptide FLSSLKGGLL (SEQ ID NO: 18) (peptide)
peptide: FLSSLKGGLL
Consider B49, for which the peptide exchange yield was in the range of 50 to 75%.

B50: peptide RTLDKVLEV (SEQ ID NO: 176) (peptide)
peptide: RTLDKVLEV
B50 displayed a peptide exchange yield of 20 to 50%.

B51: peptide RLLJPLSSA (SEQ ID NO: 179) (peptide)
peptide: RLL[pS]PLSSA
notes: Phosphopeptide
With B51, the peptide exchange yield is 50 to 75%.

B52: peptide ALAGGITMV (SEQ ID NO: 170) (peptide)
peptide: ALAGGITMV
Molecule B52 gave a peptide exchange yield of 50 to 75%.

B53: peptide FLKNELDNV (SEQ ID NO: 161) (peptide)
peptide: FLKNELDNV
Molecule B53 yielded a peptide exchange yield of 50 to 75%.

B54: peptide LLLDTVTMQV (SEQ ID NO: 172) (peptide)
peptide: LLLDTVTMQV
In turn, B54 registered a peptide exchange yield of 50 to 75%.

B55: peptide RLYTKLLNEA (SEQ ID NO: 19) (peptide)
peptide: RLYTKLLNEA
The molecule B55 gave a peptide exchange yield of 50 to 75%.

B56: peptide AMAEMVLQV (SEQ ID NO: 190) (peptide)
peptide: AMAEMVLQV
For the molecule B56, the peptide exchange yield is 50 to 75%.

B57: peptide ALLQGAIESV (SEQ ID NO: 177) (peptide)
peptide: ALLQGAIESV
Regarding B57, the peptide exchange yield fell in the range of 50 to 75%.

B58: peptide … (SEQ ID NO: 159) (peptide)
peptide: VLVDDDGIKVV
Molecule B58 came in with a peptide exchange yield of 20 to 50%.

B59: peptide YLAHFIEGL (SEQ ID NO: 169) (peptide)
peptide: YLAHFIEGL
On to B59, for which the peptide exchange yield lay in the range of 50 to 75%.

B60: peptide ALAAARVEL (SEQ ID NO: 17) (peptide)
peptide: ALAAARVEL
Regarding B60, the peptide exchange yield lay in the range of 50 to 75%.

B61: peptide FLVDGPRVQL (SEQ ID NO: 188) (peptide)
peptide: FLVDGPRVQL
B61: the peptide exchange yield lay in the range of 50 to 75%.
